# Experimental data published in the DeepSol protein solubility set.
# Test: soluble on expression in E. coli; label from the status in PepcDB or PDB records
row,Sequence,soluble on expression in E. coli
1,MKTKDQIDNIVKETYRHIDFSGVILVKEKKGIVYEEVFGYANRNECINNTLQTRFGIASGCKIFTAIGICQLVENGVITFQTKLKECLSVNFPNFNEDITIHHLLTHSSGIPDYFDESIMDNFEDLWKQTPMYLLKSLKDFLPLFQNRDMMYAPGSKFHYNNAGFIILGLIIEEQTGLTFTEYIEKNIFNPIGMNHSGYFSLDRLPRQTALGYIKDEISQTWRTNAYSIPIKGGSDGGAFITASDMLKFWEALFNYEIISQEYTKILLTPHIQVNNNQSYGYGIWIETRENKIFKYHVMGYDPGVSFRSAVYPDLGITLVIPSNKGAGAEKLMIEIEGSF,not soluble
2,MKTLIARHKAGEHIGICSVCSAHPLVIEAALAFDRNSTRKVLIEATSNQVNQFGGYTGMTPADFREFVFTIADKVGFARERIILGGDHLGPNCWQQENADAAMEKSVELVKAYVRAGFSKIHLDASMSCAGDTIPLAPETVAERAAVLCFAAESVATDCQREQLSYVIGTEVPVPGGEASAIQSVHITHVEDAANTLRTHQKAFIARGLTEALTRVIAIVVQPGVEFDHSNIIHYQPQEAQALAQWIENTRMVYEAHSTDYQTRTAYWELVRDHFAILKVGPALTFALREAIFALAQIEQELIAPENRSGCLAVIEEVMLDEPQYWKKYYRTGFNDSLLDIRYSLSDRIRYYWPHSRIKNSVETMMVNLQGVDIPLGMISQYLPKQFERIQSGELSAMPHQLIMNKIYDVLRAYRYGCAE,not soluble
3,MKTLILFSTRDGQTREIASYLASELKELGIQADVANVHRIEEPQWENYDRVVIGASIRYGHYHSAFQEFVKKHATRLNSMPSAFYSVNLVARKPEKRTPQTNSYARKFLMNSQWRPDRCAVIAGALRYPRYRWYDRFMIKLIMKMSGGETDTRKEVVYTDWEQVANFAREIAHLTDKPTLK,not soluble
4,MKTLLPTSTAGSLPKPSWLAQPEKLWSPWKLQDEELIEGKRDALRLSLNDQQQAGIDIVSDGEQTRQHFVTTFIEHLSGVDFEKRETVRIRNRYDASVPTVVGAVSREKPVFVEDAKFLRQQTRQPIKWALPGPMTMIDTLYDSHYKSREKLAWEFAKILNQEARELEAAGVDIIQFDEPAFNVFFDEVNDWGVATLEKAIEGLKCETAVHICYGYGIKANTDWKKTLGSEWRQYEEAFPKLQKSNIDLISLECHNSRVPMDLIELIRGKKVMVGAIDVATSAIETPEEVADTLRKALRFVDADKLYPCTNCGMAPLSRQVARSKLNALGAGAEIIRRELSVAAALEHHHHHH,not soluble
5,MKTPPINQKSLRETESWKLLESSIIYYEGNPIGTVAAQDPELAALNYDQCFLRDFVPSAFVFLMDGQTDIVRNFLIETLTLQSHEKEMDCFQPGAGLMPASFKVESDGSKEYLVADFGEKAIARVPPVDSCMWWILLLRAYEKATGDLTLAREPKFQAGIKLILDLCLAHRFSMYPTMLVPDGAFMIDRRMGVYEHPLEIQVLFYAALRAARELLLPDGDGEQYLNKVHGRLGALQYHIRNYYWVDLKRLREIYRYKGNEFGKEIANKFNIFSQSIPDWVIEWLPEKGGYLAGNLGPGRMDFRFFALGNLMAILAGLASEEESQRIMNLFAHRWEDLIGYMPVKICYPALQGLEWQIVTGCDPKNIPWSYHNGGNWPVLLWLFTAAALKTGKVELAHEAIAIAEGRLSNDKFPEYYDGNNGRLIGKEARIYQTWSIAGLLVAKQFLANPDHVEFISFPDTFIGPGCSLLEHHHHHH,not soluble
6,MKTPRLLQYLAYPQKITGPIIEAELRDVAIGELCEIRRGWHQKQVVARAQVVGLQRERTVLSLIGNAQGLSRDVVLYPTGRALSAWVGYSVLGAVLDPTGKIVERFTPEVAPISEERVIDVAPPSYASRVGVREPLITGVRAIDGLLTCGVGQRMGIFASAGCGKTMLMHMLIEQTEADVFVIGLIGERGREVTEFVDMLRASHKKEKCVLVFATSDFPSVDRCNAAQLATTVAEYFRDQGKRVVLFIDSMTRYARALRDVALASGERPARRGYPASVFDNLPRLLERPGATSEGSITAFYTVLLESEEEADPMADEIRSILDGHLYLSRKLAGQGHYPAIDVLKSVSRVFGQVTTPTHAEQASAVRKLMTRLEELQLFIDLGEYRPGENIDNDRAMQMRDSLKAWLCQPVAQYSSFDDTLSGMNAFADQN,not soluble
